Where no end group is shown, it is not given here. [ ]: non-standard residue; d: D form.
How the values were obtained:
[1] = target: T1, FLAG-Mm_Fpr2 C-terminally fused to Renilla Luciferase 8 (mouse, UniProt O88536 1-351); assay: cell-based or functional assay
T1 sequence (looked up): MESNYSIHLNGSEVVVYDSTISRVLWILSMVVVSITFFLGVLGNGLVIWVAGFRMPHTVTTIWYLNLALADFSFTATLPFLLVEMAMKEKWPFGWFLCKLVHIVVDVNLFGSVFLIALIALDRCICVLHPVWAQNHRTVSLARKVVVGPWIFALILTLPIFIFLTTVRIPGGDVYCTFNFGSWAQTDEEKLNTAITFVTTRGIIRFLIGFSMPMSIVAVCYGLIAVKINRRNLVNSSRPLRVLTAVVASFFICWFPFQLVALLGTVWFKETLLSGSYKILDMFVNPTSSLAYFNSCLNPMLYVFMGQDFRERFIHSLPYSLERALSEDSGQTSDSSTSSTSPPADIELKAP

[2] = target: T2, FLAG-Hs_FPR2 C-terminally fused to Renilla Luciferase 8 (human, UniProt P25090 1-351); assay: cell-based or functional assay
T2 sequence (looked up): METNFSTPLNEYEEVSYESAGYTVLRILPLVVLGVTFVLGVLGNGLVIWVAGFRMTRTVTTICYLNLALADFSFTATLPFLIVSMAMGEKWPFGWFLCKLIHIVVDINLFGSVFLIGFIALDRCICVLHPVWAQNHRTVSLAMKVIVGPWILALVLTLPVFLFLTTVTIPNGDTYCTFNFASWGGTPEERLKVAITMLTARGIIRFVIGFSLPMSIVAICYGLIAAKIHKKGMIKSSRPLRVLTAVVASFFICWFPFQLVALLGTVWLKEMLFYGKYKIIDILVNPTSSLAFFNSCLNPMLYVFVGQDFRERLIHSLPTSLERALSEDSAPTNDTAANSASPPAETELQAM

[3] = target: T3, FLAG-Mm_Fpr1 C-terminally fused to Renilla Luciferase 8 (mouse, UniProt P33766 1-364); assay: cell-based or functional assay
T3 sequence (looked up): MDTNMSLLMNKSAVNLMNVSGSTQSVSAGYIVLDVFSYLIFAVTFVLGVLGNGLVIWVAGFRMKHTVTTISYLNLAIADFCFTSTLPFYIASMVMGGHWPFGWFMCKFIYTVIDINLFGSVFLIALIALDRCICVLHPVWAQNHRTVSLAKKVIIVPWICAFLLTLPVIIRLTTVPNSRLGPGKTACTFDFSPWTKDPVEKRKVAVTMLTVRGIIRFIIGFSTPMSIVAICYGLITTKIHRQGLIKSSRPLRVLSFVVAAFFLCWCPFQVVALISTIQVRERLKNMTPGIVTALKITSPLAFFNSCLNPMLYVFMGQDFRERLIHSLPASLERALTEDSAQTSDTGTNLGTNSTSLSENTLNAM

[4] = target: T4, FLAG-Hs_FPR1 C-terminally fused to Renilla Luciferase 8 (human, UniProt P21462 1-350); assay: cell-based or functional assay
T4 sequence (looked up): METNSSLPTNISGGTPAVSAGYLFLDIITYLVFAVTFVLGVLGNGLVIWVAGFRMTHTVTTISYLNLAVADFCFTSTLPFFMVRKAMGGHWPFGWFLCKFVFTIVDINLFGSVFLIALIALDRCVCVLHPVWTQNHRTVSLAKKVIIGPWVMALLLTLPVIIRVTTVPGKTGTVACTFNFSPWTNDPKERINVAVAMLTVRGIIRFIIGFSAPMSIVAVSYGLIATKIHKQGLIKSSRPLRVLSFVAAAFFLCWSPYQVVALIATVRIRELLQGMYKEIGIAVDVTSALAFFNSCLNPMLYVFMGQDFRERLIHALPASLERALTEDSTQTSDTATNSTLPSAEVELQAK

[5] = target: T5, FLAG-tagged human FPR1 (Hs_FPR1) (human, UniProt P21462 1-350); assay: cell-based or functional assay
T5 sequence (looked up): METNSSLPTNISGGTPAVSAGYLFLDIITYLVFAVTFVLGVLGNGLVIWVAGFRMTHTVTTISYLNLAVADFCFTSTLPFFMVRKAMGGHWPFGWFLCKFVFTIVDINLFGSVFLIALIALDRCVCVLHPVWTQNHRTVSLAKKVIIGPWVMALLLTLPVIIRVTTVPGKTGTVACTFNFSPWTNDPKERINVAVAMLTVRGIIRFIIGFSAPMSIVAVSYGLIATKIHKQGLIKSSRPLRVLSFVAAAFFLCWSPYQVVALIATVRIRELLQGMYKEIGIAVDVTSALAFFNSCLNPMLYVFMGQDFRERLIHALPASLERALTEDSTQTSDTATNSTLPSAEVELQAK

[6] = target: T6, FLAG-tagged mouse Fpr1 (Mm_Fpr1) (mouse, UniProt P33766 1-364); assay: cell-based or functional assay
T6 sequence (looked up): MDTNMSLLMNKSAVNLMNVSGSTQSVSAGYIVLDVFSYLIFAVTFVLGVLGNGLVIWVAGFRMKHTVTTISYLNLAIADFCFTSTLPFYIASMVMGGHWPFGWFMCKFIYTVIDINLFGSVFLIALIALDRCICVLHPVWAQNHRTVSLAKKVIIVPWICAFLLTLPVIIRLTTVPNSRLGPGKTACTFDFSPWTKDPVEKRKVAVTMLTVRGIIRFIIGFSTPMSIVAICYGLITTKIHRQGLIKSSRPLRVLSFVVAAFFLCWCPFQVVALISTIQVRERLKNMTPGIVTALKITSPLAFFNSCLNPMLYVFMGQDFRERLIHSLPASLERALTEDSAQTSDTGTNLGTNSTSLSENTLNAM

[7] = target: T7, FLAG-tagged human FPR2 (Hs_FPR2) (human, UniProt P25090 1-351); assay: cell-based or functional assay
T7 sequence (looked up): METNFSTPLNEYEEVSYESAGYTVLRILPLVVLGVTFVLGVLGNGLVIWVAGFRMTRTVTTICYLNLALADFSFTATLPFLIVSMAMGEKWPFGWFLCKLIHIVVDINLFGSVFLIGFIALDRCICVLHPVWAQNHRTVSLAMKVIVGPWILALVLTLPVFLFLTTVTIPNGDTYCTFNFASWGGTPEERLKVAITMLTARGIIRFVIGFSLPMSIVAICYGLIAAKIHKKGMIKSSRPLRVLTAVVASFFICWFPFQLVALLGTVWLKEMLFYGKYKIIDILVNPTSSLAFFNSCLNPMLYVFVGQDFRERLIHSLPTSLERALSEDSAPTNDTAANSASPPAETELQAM

[8] = target: T8, FLAG-tagged mouse Fpr2 (Mm_Fpr2) (mouse, UniProt O88536 1-351); assay: cell-based or functional assay
T8 sequence (looked up): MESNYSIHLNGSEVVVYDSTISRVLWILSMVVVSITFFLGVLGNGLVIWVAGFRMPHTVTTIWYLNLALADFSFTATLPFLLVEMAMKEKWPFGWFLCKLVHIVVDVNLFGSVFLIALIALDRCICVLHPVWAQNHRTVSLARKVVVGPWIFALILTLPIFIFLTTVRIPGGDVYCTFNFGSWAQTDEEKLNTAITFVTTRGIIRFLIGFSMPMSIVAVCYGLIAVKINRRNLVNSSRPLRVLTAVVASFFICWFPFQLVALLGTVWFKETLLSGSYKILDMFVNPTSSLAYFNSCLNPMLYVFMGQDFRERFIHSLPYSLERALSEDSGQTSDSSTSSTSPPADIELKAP

[9] = target: T7, FLAG-tagged human FPR2 (Hs_FPR2); assay: flow cytometry on cells; competition binding: HEK293 cells stably expressing the receptor, lifted in PBS, on ice 90 min with 10 nM K(5/6-FAM)-WKYMVm and increasing unlabeled ligand; mean fluorescence of 5000 cells as % of that without competitor; One site-Fit logIC50
[10] = target: T8, FLAG-tagged mouse Fpr2 (Mm_Fpr2); assay: as above
[11] = target: T1, FLAG-Mm_Fpr2 C-terminally fused to …; assay: cell-based or functional assay; remark: listed apart in the source
[12] = target: T2, FLAG-Hs_FPR2 C-terminally fused to …; assay: cell-based or functional assay; remark: listed apart in the source
[13] = target: T3, FLAG-Mm_Fpr1 C-terminally fused to …; assay: cell-based or functional assay; remark: listed apart in the source
[14] = target: T4, FLAG-Hs_FPR1 C-terminally fused to …; assay: cell-based or functional assay; remark: listed apart in the source

BRET of receptor-RLuc8 with Venus-mGsi: Emax (% of 1 μM WKYMVm) [1]: 103%
BRET of receptor-RLuc8 with Venus-mGsi: Log EC50 (M) [1]: -7.51 log M
BRET of receptor-RLuc8 with Venus-mGsi: Emax (% of 1 μM WKYMVm) [2]: 100%
BRET of receptor-RLuc8 with Venus-mGsi: Log EC50 (M) [2]: -8.11 log M
BRET of receptor-RLuc8 with Venus-mGsi: Emax (% of 1 μM WKYMVm) [3]: 109%
BRET of receptor-RLuc8 with Venus-mGsi: Log EC50 (M) [3]: -6.69 log M
BRET of receptor-RLuc8 with Venus-mGsi: Emax (% of 1 μM WKYMVm) [4]: 112%
ERK1/2 phosphorylation (Western blot): Emax (% of 1 μM WKYMVm) [5]: 104%
ERK1/2 phosphorylation (Western blot): Log EC50 (M) [5]: -9.1 log M
ERK1/2 phosphorylation (Western blot): Emax (% of 1 μM WKYMVm) [6]: 102%
ERK1/2 phosphorylation (Western blot): Log EC50 (M) [6]: -8.43 log M
ERK1/2 phosphorylation (Western blot): Emax (% of 1 μM WKYMVm) [7]: 93.8%
ERK1/2 phosphorylation (Western blot): Emax (% of 1 μM WKYMVm) [8]: 118%
ERK1/2 phosphorylation (Western blot): Log EC50 (M) [8]: -9.06 log M
Log IC50 [9]: -7.7 log M
Max Comp (%) [9]: 100%
Log IC50 [10]: -7.18 log M
Max Comp (%) [10]: 97.5%
BRET of receptor-RLuc8 with Arrestin 3-YFP: Emax (% of 1 μM WKYMVm) [11]: 101%
BRET of receptor-RLuc8 with Arrestin 3-YFP: Log EC50 (M) [11]: -7.46 log M
BRET of receptor-RLuc8 with Arrestin 3-YFP: Emax (% of 1 μM WKYMVm) [12]: 102%
BRET of receptor-RLuc8 with Arrestin 3-YFP: Log EC50 (M) [12]: -8.13 log M
BRET of receptor-RLuc8 with Arrestin 3-YFP: Emax (% of 1 μM WKYMVm) [13]: 112%
BRET of receptor-RLuc8 with Arrestin 3-YFP: Log EC50 (M) [13]: -6.8 log M
BRET of receptor-RLuc8 with Arrestin 3-YFP: Emax (% of 1 μM WKYMVm) [14]: 105%
BRET of receptor-RLuc8 with Arrestin 3-YFP: Log EC50 (M) [14]: -7.3 log M
B1: WKYMVm (peptide)
peptide: WKYMV[dM]
notes: the last residue is the D form; the bought peptide is probably also an amide (surmise); source: bought: Tocris

Reference: PMC12881670, “Investigation into ligand selectivity and bias at the formyl peptide receptor family” (The Journal of Pharmacology and Experimental Therapeutics, 2025)
